The target in the assay is T1, human α4β7 integrin (human, UniProt P13612 34-1032; P26010 20-798).
T1 construct: whole, on cells; also called α4β7 integrin on HuT 78 cells; α4β7 on RPMI 8866 cells
Briefly: inhibition of adhesion of α4β7+ RPMI 8866 cells to plate-bound human MAdCAM-1-Ig chimera; antibody varied from 15.0 to 0.00075 µg/ml.

Protocol: Wells were then washed once with wash buffer (50 mM Tris HCl, 0.14 M NaCl, 1 mM MnC12, pH 7.2) using a microplate autowasher (Bio-Tek Instruments, Winooski, Vt.) and blocked for 1.5 hrs at 37° C. with 100 μL of 10% FBS diluted in PBS.
BCECF (2′,7′-bis-(2-carboxyethyl)-5-(and 6)-carboxy fluorescein, acetoxymethyl ester; Molecular Probes, Inc., Eugene, Oreg.) was reconstituted to 50 μg/ml in DMSO and added to the cell suspension to a final dilution of 1:500. After incubating for 30 minutes at 37° C., cells were then washed in assay buffer (HBSS with 2% Fetal Bovine Serum, 25 mM HEPES, penicillin/streptomycin, pH 7.2), and 50,000 cells were added to each well of a V-bottom 96-well plate. […] The plate coated with MAdCAM-1 chimera was washed to remove blocking buffer, and these fluorescently labeled RPMI 8866 cells were then transferred to each well. The plate was placed on a platform shaker (New Brunswick Scientific Co., Inc., Edison, N.J.) at 40 RPM for 30 minutes at room temperature wrapped in aluminum foil. Unbound cells were removed by a single wash step and fluorescence subsequently measured (excite at 485 nm, read at 535 nm) with a Fluorescence Concentrator Analyzer (IDEXX Laboratories, Inc., Westbrook, Me.) before and after washing.

B1: murine Act-1 monoclonal antibody (antibody, mouse IgG1, V domains shown)
VH: QVQLQQPGAELVKPGTSVKLSCKGYGYTFTSYWMHWVKQRPGQGLEWIGEIDPSESNTNYNQKFKGKATLTVDISSSTAYMQLSSLTSEDSAVYYCARGGYDGWDYAIDYWGQGTSVTVSS
VL: DVVVTQTPLSLPVSFGDQVSISCRSSQSLAKSYGNTYLSWYLHKPGQSPQLLIYGISNRFSGVPDRFSGSGSGTDFTLKISTIKPEDLGMYYCLQGTHQPYTFGGGTKLEIK
notes: Mouse IgG1/kappa from the Act-1 hybridoma (ATCC PTA-3663); also called mAb Act-1; mouse Act-1 antibody
One may read the IC50 as the point on the concentration scale where inhibition reaches its midpoint. Low values mean higher potency, high ones lower potency. B1: the half-maximal inhibitory concentration (IC50) was determined as 1.8 ng/mL.

Values taken from patent US20090011464A1 (published 2009).
